Other and stoichiometry N data for four substances are collected here from publication PMC8262854.

Data set [1] deals with Du172.17 gp140.664.R4 Env trimer (HIV-1 Du172.17 (clade C)). Nature of the data set: crystal structure.

Like-named read-outs stand apart in the source and are kept apart here.

As to “BG505.T332N Env (pseudovirus glycan hole mutant P291T): P291T (glycan site added at N289)”, for the setting “N-glycosylation at N289”, the other entry is on record as “decreases”.
As for “BG505.T332N Env (pseudovirus glycan hole mutant T465N): T465N (glycan site added)”, the other entry (N-glycosylation at N465) is given as “decreases”.
On to “BG505.T332N Env (pseudovirus glycan hole mutant S241N): S241N (glycan site added)”, for which the other result (N-glycosylation at N241) is given as “decreases”.
In general, stoichiometry N refers to a count of units in the complex or per binding partner. For the substance “Du172.17 gp140.664.R4 Env trimer (complex)”, the stoichiometry N in data set [1] was 3.
